Test results reported in US20220133913A1 (KOREA BASIC SCIENCE INSTITUTE, published 2022).

Key:
[1] = target: T1, human αvβ3 integrin ITGAVB3 (human, UniProt P06756 31-992; P05106 27-718, limits assumed); assay: phage ELISA, coated ITGAVB3, anti-M13-HRP, 490 nm
T1 construct: Recombinant heterodimer used as immunogen, ELISA coating and SPR ligand; also called A5B3; A5b3
Method: Further, in order to perform phage ELISA, 2.5 μg/mL to […] of a target protein and a control protein were coated at 4 degrees C. using a coating buffer, and the wells were washed 3 times with 200 μL washing buffer per well. The wells were blocked with 200 μL PBS-M for two hours at room temperature. The blocking buffer was removed and the plate was washed 6 times with the washing solution. Thereafter, 100 μL of phage solution was added to the washing buffer per well and incubation was executed at room temperature for 1 to 2 hours. Then, washing was performed 6 times with washing buffer. HRP-binding anti-M13 antibody (GE healthcare) was diluted with 1:5,000 blocking buffer. 100 μL of diluted conjugate was added onto each well, and incubation was performed at room temperature for 1 hour, and washing was carried out 6 times with washing buffer. The HRP substrate solution was prepared as follows: A stock solution of OPD was prepared by dissolving 22 mg OPD (Sigma) in 100 mL of […] sodium citrate (pH 4.0), and 36 μL 30% H₂O₂ was added to 21 mL of OPL stock solution immediately before the detection step. 100 μL of substrate solution was added to each well and incubation was performed for 30 minutes at room temperature. Plates were analyzed using a micro plate reader set at 490 nm.

[2] = target: T1, human αvβ3 integrin ITGAVB3; assay: ELISA of soluble VHH (TG1 lysate), induced at 30 C, coated ITGAVB3
[3] = target: T1, human αvβ3 integrin ITGAVB3; assay: ELISA of soluble VHH (TG1 lysate), induced at 37 C, coated ITGAVB3
[4] = target: T1, human αvβ3 integrin ITGAVB3; assay: ELISA of soluble VHH, induced at 30 C; coating not given
[5] = target: T1, human αvβ3 integrin ITGAVB3; assay: ELISA of soluble VHH, induced at 37 C; coating not given
[6] = target: T1, human αvβ3 integrin ITGAVB3; assay: SPR, αvβ3 integrin immobilised on CMDH chip, nanobody as analyte
Method: Specifically, a CMDH chip (Carboxymethyl Dextran Hydrogel Surface Sensor Chip, Reichert Technologies) coated with Dextran was mounted on an SPR equipment (Reichert SR7500DC system) to perform immobilization of αᵥβ₃ integrin antigen. Then, an analysis of the affinity of the selected antibody based on the concentration was performed.

T1 sequence (P06756 31-992 limits assumed, chain 1 of 2): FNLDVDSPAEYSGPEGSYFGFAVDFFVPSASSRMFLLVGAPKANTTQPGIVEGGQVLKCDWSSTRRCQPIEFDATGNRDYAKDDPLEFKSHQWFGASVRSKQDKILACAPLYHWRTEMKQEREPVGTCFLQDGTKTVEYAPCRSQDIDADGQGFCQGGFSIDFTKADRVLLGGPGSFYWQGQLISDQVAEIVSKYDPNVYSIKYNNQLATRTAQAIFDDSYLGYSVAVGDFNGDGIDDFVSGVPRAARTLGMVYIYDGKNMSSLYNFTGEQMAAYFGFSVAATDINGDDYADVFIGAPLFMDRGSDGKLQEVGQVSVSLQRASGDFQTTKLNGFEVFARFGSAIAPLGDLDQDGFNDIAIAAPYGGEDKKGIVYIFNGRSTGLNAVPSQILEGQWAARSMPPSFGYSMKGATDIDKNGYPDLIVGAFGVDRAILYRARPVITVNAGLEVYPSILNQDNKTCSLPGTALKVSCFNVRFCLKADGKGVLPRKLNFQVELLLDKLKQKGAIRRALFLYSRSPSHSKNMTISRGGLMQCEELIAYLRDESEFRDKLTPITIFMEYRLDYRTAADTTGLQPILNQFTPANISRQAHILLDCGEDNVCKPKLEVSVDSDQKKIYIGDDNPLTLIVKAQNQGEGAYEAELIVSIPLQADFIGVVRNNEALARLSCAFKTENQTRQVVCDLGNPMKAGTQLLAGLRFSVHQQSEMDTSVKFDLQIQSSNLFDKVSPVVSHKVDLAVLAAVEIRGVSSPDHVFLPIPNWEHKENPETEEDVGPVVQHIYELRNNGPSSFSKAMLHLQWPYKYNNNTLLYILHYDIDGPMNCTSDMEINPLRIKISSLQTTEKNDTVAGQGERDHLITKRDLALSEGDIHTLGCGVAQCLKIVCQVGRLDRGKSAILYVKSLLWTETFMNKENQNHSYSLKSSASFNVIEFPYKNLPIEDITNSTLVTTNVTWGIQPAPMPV
T1 sequence (P05106 27-718 limits assumed, chain 2 of 2): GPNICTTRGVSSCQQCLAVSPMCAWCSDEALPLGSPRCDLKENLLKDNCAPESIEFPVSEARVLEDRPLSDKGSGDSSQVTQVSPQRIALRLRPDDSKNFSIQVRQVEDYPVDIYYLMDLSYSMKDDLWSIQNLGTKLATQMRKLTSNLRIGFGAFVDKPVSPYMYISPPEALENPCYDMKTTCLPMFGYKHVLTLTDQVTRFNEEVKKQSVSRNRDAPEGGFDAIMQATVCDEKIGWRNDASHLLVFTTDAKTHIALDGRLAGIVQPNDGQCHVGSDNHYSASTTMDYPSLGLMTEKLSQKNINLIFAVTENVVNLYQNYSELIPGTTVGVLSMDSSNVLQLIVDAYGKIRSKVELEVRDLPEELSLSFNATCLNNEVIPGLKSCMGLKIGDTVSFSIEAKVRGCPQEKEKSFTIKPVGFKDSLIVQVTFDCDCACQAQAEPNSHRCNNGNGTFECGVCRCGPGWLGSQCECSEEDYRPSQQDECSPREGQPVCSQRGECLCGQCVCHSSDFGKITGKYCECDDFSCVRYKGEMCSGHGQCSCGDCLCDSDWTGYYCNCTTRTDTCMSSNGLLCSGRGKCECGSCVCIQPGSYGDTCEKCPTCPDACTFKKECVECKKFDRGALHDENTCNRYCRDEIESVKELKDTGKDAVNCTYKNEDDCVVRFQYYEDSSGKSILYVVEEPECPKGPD

B1: VHH-12 (VHH)
VHH: EVQLVESGGGSVQPGESLRLSCVASGYTVSSSCMAWFRQAPGKEREVVATIVVTSDTTSTFYADSVKGRFTISPDNAKNTLNLQMNSLEPSDTAMYYCAADRKWNVCSRGYRYTPNWANQFTFWGQGTQVTVSS
notes: also called clone 12
B1 showed an OD490 [1] of 2.06, an OD490 [2] of 1.87 and an OD490 [3] of 1.93. The OD490 [4] was 1.84 and the OD490 [5] was 1.23.

B2: clone 2 (VHH)
VHH: EVQLVESGGGSVQPGESLRLSCVASGYTVSSSCMAWFRQAPGKEREVVATIVVTSDTTSTFYADSVKGRFTISPDNAKNTLNLQMNSLEPPDTAMYYCAADRKWNVCSRGYRYTPNWANQFTFWGQGTQVTVSS
Binder B2 has an OD490 [1] of 2.02.

B3: clone 3 (VHH)
VHH: EVQLVESGGGSVQPGESLRLSCVASGYTVSSSCMAWFRQAPGKEREVVATIVVTSDTTSTFYADSVKGRFTISPDNAKNTLNLQMNSLEPPDTAMYYCAADRKWNVCSRGYRYTPNWANQFTFWGQGTQVTVSS
Work on B3 yielded an OD490 [1] of 1.88.

B4: clone 4 (VHH)
VHH: EVQLVESGGGSVQPGESLRLSCVASGYTVSSSCMAWFRQAPGKEREVVATIVVTSDTTSTFYADSVKGRFTISPDNAKNTLNLQMNSLEPPDTAMYYCAADRKWNVCSRGYRYTPNWANQFTFWGQGTQVTVSS
Binder B4 has an OD490 [1] of 2.16.

B5: clone 14 (VHH)
VHH: DVQLVESGGGSVQPGESLRLSCVASGYTVSSSCMAWFRQAPGKEREVVATIVVTSDTTSTFYADSVKGRFTISPDNAKNTLNLQMNSLEPSDTAMYYCAADRKWNVCSRGYRYTPNWANQFTFWGQGTLVTVSS
For B5, the OD490 [1] was 1.93.

B6: clone 21 (VHH)
VHH: HVQLVESGGGSVQPGESLRLSCVASGYTVSSSCMAWFRQAPGKEREVVATIVVTSDTTSTFYADSVKGRFTISPDNAKNTLNLQMNSLEPSDTAMYYCAADRKWNVCSRGYRYTPNWANQFTFWGQGTQVTVSS
Work on B6 yielded an OD490 [1] of 1.95.

B7: clone 27 (VHH)
VHH: HVQLVESGGGSVQPGESLRLSCVASGYTVSSSCMAWFRQAPGKEREVVATIVVTSDTTSTFYADSVKGRFTISPDNAKNTLNLQMNSLEPSDTAMYYCAADRKWNVCSRGYRYTPNWANQFTFWGQGTQVTVSS
Work on B7 yielded an OD490 [1] of 1.97.

B8: clone 29 (VHH)
VHH: DVQLVESGGGSVQPGESLRLSCVASGYTVSSSCMAWFRQAPGKEREVVATIVVTSDTTSTFYADSVKGRFTISPDNAKNTLNLQMNSLEPSDTAMYYCAADRKWNVCSRGYRYTPNWANQFTFWGQGTLVTVSS
With B8 the OD490 [1] was 2.04.

B9: clone 39 (VHH)
VHH: EVQLVESGGGSVQPGESLRLSCVASGYTVSSSCMAWFRQAPGKEREVVATIVVTSDTTSTFYADSVKGRFTISPDNAKNTLNLQMNSLEPPDTAMYYCAADRKWNVCSRGYRYTPNWANQFTFWGQGTQVTVSS
B9 showed an OD490 [1] of 1.8.

B10: clone 8 (VHH)
VHH: DVQLVESGGGSVQPGGSLRLSCAASGYTVENSCMAWFRQAPGKEREVVATIVTNNATGTFYADSVKGRFTVSQDNAKNTLNLQMNSLEPEDTAMYYCAADTKWIVCSRGYRYTPNWANQFKYWGQGTQVTVSS
In the case of B10, the OD490 [1] is reported as 1.95.

B11: clone 30 (VHH)
VHH: DVQLVESGGGSVQPGGSLRLSCAASGYTVDNSCMAWFRQAPGKEREVVATIVTNNATSTFYADSVKGRFTVSHDNAKNTLNLQMNTLEPEDTAMYYCAADTKWIVCSRGYRYTPNWANHFNYWGQGTLVTVSS
In the case of B11, the OD490 [1] is reported as 1.97.

B12: clone 38 (VHH)
VHH: DVQLVESGGGSVQPGGSLRLSCAASGYTVDNSCMAWFRQAPGKEREVVATIVTNNATSTFYADSVKGRFTVSHDNAKNTLNLQMNTLEPEDTAMYYCAADTKWIVCSRGYRYTPNWANHFNYWGQGTLVTVSS
With B12 the OD490 [1] was 2.12.

B13: clone 40 (VHH)
VHH: DVQLVESGGGSVQPGGSLRLSCAASGYTVDNSCMAWFRQAPGKEREVVATIVTNNATSTFYADSVKGRFTVSHDNAKNTLNLQMNTLEPEDTAMYYCAADTKWIVCSRGYRYTPNWANHFNYWGQGTLVTVSS
Work on B13 yielded an OD490 [1] of 2.04.

B14: clone 10 (VHH)
VHH: EVQLVESGGGSVQAGGSLRLSCVVSGYTCSVYDMIWYRQPPGKEREFVSLINSNGRTTYADSVKGRFTISQNNAKNTVYLQMNSLKPEDTAMYYCHAACYSPSRLNYWGQGTQVTVSS
Work on B14 yielded an OD490 [1] of 2.14.

B15: clone 26 (VHH)
VHH: QVQLVESGGGSVQAGGSLRLSCVVSGYTCSVYDMIWYRQPPGKEREFVSLINSNGRTTYADSVKGRFTISQNNAKNTVYLQMNSLKPEDTAMYYCHAACYSPSRLNYWGQGTLVTVSS
With B15 the OD490 [1] was 2.01.

B16: single-domain antibody VHH-13 containing His6 tag (VHH)
VHH: HVQLVESGGGSVQPGESLRLSCVASGYTVSSSCMAWFRQAPGKEREVVATIVVTSDTTSTFYADSVKGRFTISPDNAKNTLNLQMNSLEPSDTAMYYCAADRKWNVCSRGYRYTPNWANQFTFWGQGTQVTVSS
notes: also called Nanobody #13
B16 showed a Kd [6] of 9.38 nM, a koff [6] of 0.00108 s⁻¹ and a kon [6] of 115000 M⁻¹ s⁻¹.

B17: single-domain antibody VHH-22 containing His6 tag (VHH)
VHH: QVQLVESGGGSVQAGGSLRLSCVVSGYTCSVYDMIWYRQPPGKEREFVSLINSNGRTTYADSVKGRFTISQNNAKNTVYLQMNSLKPEDTAMYYCHAACYSPSRLNYWGQGTLVTVSS
notes: also called Nanobody #22
B17 gave a Kd [6] of 15.5 nM, a koff [6] of 0.000974 s⁻¹ and a kon [6] of 62700 M⁻¹ s⁻¹.

B18: single-domain antibody VHH-25 containing His6 tag (VHH)
VHH: EVQLVESGGGSVQAGGSLRLSCVVSGYTCSVYDMIWYRQPPGKEREFVSLINSNGRTTYADSVKGRFTISQNNAKNTVYLQMNSLKPEDTAMYYCHAACYSPSRLNYWGQGTQVTVSS
notes: also called Nanobody #25; pALT-Avb3 VHH25 product
Work on B18 yielded a Kd [6] of 8.83 nM, a koff [6] of 0.000871 s⁻¹ and a kon [6] of 98600 M⁻¹ s⁻¹.

B19: clone 19 (VHH)
VHH: EVQLVESGGGSVQPGESLRLSCVASGYTVSSSCMAWFRQAPGKEREVVATIVVTSDTTSTFYADSVKGRFTISPDNAKNTLNLQMNSLEPSDTAMYYCAADRKWNVCSRGYRYTPNWANQFTFWGQGTQVTVSS
In the case of B19, the OD490 [1] is reported as 1.94.

B20: clone 28 (VHH)
VHH: EVQLVESGGGSVQPGESLRLSCVASGYTVSSSCMAWFRQAPGKEREVVATIVVTSDTTSTFYADSVKGRFTISPDNAKNTLNLQMNSLEPSDTAMYYCAADRKWNVCSRGYRYTPNWANQFTFWGQGTQVTVSS
B20 gave an OD490 [1] of 1.94.

B21: clone 32 (VHH)
VHH: EVQLVESGGGSVQPGESLRLSCVASGYTVSSSCMAWFRQAPGKEREVVATIVVTSDTTSTFYADSVKGRFTISPDNAKNTLNLQMNSLEPSDTAMYYCAADRKWNVCSRGYRYTPNWANQFTFWGQGTQVTVSS
B21 showed an OD490 [1] of 1.88.

B22: clone 33 (VHH)
VHH: EVQLVESGGGSVQAGGSLRLSCVVSGYTCSVYDMIWYRQPPGKEREFVSLINSNGRTTYADSVKGRFTISQNNAKNTVYLQMNSLKPEDTAMYYCHAACYSPSRLNYWGQGTQVTVSS
For B22, the OD490 [1] was 1.86.

B23: clone 34 (VHH)
VHH: DVQLVESGGGSVQPGGSLRLSCAASGYTVENSCMAWFRQAPGKEREVVATIVTNNATGTFYADSVKGRFTVSQDNAKNTLNLQMNSLEPEDTAMYYCAADTKWIVCSRGYRYTPNWANQFKYWGQGTQVTVSS
In the case of B23, the OD490 [1] is reported as 2.01.

B24: clone 36 (VHH)
VHH: DVQLVESGGGSVQPGGSLRLSCAASGYTVENSCMAWFRQAPGKEREVVATIVTNNATGTFYADSVKGRFTVSQDNAKNTLNLQMNSLEPEDTAMYYCAADTKWIVCSRGYRYTPNWANQFKYWGQGTQVTVSS
For B24, the OD490 [1] was 1.98.

B25: clone 37 (VHH)
VHH: HVQLVESGGGSVQTGGSLRLSCAASGYTSSTVYMAWFRQTPGKQREGVAAIYTGGGPTYYADSVKGRFTISQDNAKNTVYLQMNTLKPEDTAMYYCAADRYVYRLVTNWYRPSFYTYWGQGTQVTVSS
B25 gave an OD490 [1] of 2.09.
